# Assay results taken from patent US7052704B2, “Methods and compositions for lipidization of hydrophilic molecules” (University of Southern California, priority 1995, dated 2006).
# B1: BBI: hydrophilic protein which has low uptake into cells and is not orally bioavailable; used for chemoprevention (protein, UniProt P01055 40-110, looked up)
# Bowman-Birk type proteinase …: DDESSKPCCDQCACTKSNPPQCRCSDMRLNSCHSACKSCICALSYPAQCFCVDITDFCYEPCKPSEDDKEN
# Experiments:
# Caco-2 monolayers = assay: Transport of single- and multiple-conjugates across Caco-2 monolayers in transwells; type: cell-based, Human
# Protocol: Confluent cell monolayers, 2 to 3 weeks old, and having a TEER value of approximately 500 Ωcm^2, were first incubated with Dulbecco's MEM containing 1% of FBS for 30 min at 37° C. Subsequently, the incubation medium was removed, and the ^125I-BBI (10 μg/ml) conjugates in 1.5 ml of the medium was added to the apical chamber of the transwells. To the basal chamber, 2.5 ml of the medium was added and the transwells were incubated at 37° C. At predetermined times, the entire basal chamber medium (2.5 ml) from each transwell was removed and counted for radioactivity using a gamma counter. In each experiment, typically seven samples were taken at 1, 2, 3, 4, 5, 6 and 24 hr post-incubation. After the 24 hr samples were taken, the cell monolayers were rinsed three times with ice-cold PBS, cut out of the inserts, and counted for accumulated radioactivity using a gamma counter.
# The integrity of the ^125I-BBI conjugates transported across the monolayers was studied using Sephadex G50 gel-filtration chromatography. Briefly, after the basal medium was sampled at 24 hr, 1.0 ml of the medium was centrifuged at 2000 rpm and then eluted from a G50 column (10 ml) using PBS; 1 ml fractions were collected and the fraction-associated radioactivity was determined using a gamma counter. Intact conjugates eluted at column void volume and fragments smaller than 1 kDa were eluted at or above the column volume.
# In the transwell experiments, the conjugates were incubated with the apical side of the cells for 1 hr at 37° C. The transwells were then rinsed three times with ice-cold PBS and then reincubated with serum free medium. The release of the conjugates into the apical and the basal medium was chased for 24 hr by counting the entire basal or the apical medium at different times. The total counts obtained at the end of the chase period (transwells+media counts were added, and the release of the conjugates (% of total) at different times was calculated. To ensure that the counts obtained in the transwells at 24 hr were due to the presence of the conjugates in the cells and not non-specific binding to the plastic, the transwells were exposed to trypsin for 10 min, rinsed three times with ice-cold pbs, and subsequently counted for accumulated radioactivity.
# BBI was modified with 2 or 4 palmitic acids, and the transport was determined in transwells. The cumulative transport of BBI, BBI modified with 4 palmitic acids, and BBI modified with 2 palmitic acids in Caco-2 monolayers were determined as BBI (ng/monolayer) ± SEM, n=3. The order of the transport extent was BBIssPal(4)>BBI>BBIssPal(2). The results of the internalization of the conjugates into the same cells were determined as the ng of BBI internalized per monolayer. […] The basal media obtained at 24 hr from the transwells was analyzed using a G50 column. […] However, a small, but significant, amount of the basal media of BBIssPal(2) consisted of intact conjugate. This quantity consisted of between about 10 and about 20% of the total radioactivity present in the basal medium.
# [1] = system: C3H 10T1/2(clone 8) cells; assay: In vitro transformation assay (MCA-induced); type: cell-based; conditions: MCA 1 μg/ml 24 hr, then conjugates 1.0 μg/ml for first three weeks
# Protocol: Transformation assays were carried out using C3H 10T1/2(clone 8) cells according to the published recommendations [Reznikoff, C. A. et al. (1973) Cancer. Res. 33, 3239–3249; Reznikoff, C. A. et al. (1973) Cancer. Res. 33, 3231–3238]. Stock cultures of mycoplasma-free cells were maintained by passing 50,000 cells per 75 cm^2 flask every seven days. Using this schedule, the cells were always passed approximately 2 days before reaching confluence. The stock culture was grown in Eagle's basal medium supplemented with 10% FBS, penicillin (100 units), and streptomycin (100 μg) and used for the transformation assays at passages of 9 to 14. The cells were passed by treating the stock cells with trypsin (0.1%) in PBS for 5 min and quenching the trypsin with 5 ml of the medium. This procedure was adapted to minimize spontaneous transformation in the stock cultures and maximize the plating efficiency in the petri dishes. The FBS stock used in the cultures was pre-screened to ensure that the serum was able to support the expression and the growth of the transformed cells.
# For the transformation assays, C3H 10T1/2 cells (1000/dish) were seeded into 60 mm petri dishes and allowed to grow in a humidified 5% CO2 atmosphere in Eagle's basal medium, supplemented with 10% FBS, penicillin (100 units), and streptomycin (100 μg), for 24 hr. Subsequently, the cells were initiated by treatment with 25 μl of the 3-methylcholanthrene (MCA) in acetone stock solution ([…]) to a final concentration of 1 μg/ml of MCA (5 μg/5 ml). The cells were allowed to grow in the presence of the carcinogen or solvent for 24 hr, and the medium in each dish was then replaced with fresh medium containing no carcinogen or solvent. The medium in the dishes was replaced twice per week for the first two weeks of the assay, and thereafter once a week for the remainder four weeks of the assay. In the experiments designed to determine the transformation inhibitory activity of the conjugates, the cells were maintained in the medium containing the conjugates (1 μg/ml) for the first three weeks of the assay; thereafter, the cells were maintained in medium containing no added conjugates.
# Six weeks after the carcinogen treatment, the cells were inspected under a microscope for adherence to the culture dishes and were washed with PBS and then fixed in 100% methanol. The fixed monolayers were then stained with Giemsa stain. 20 dishes per group were treated in each experiment. In addition to the test groups, all the transformation assays contained at least three other groups: negative control (not treated with carcinogen or solvent), acetone control (treated with 25 μl of acetone), and positive control [treated with MCA (1 μg/ml) in 25 μl of acetone]. The transformed foci (>3 mm in diameter) in the plates were studied under a microscope and classified according to published guidelines as types I, II, or III [Landolph, J. R. (1985) Transfomatin assay of established cell lines: Mechanism and Application (ed. Kakunaga, T., and Yamasaki, H.) IARC Scientific Publications, Lyon, France pp. 185–201]. Briefly, type III foci were dense, multilayered, basophilic, areas of cell growth which stained to a deep blue color with Giemsa and had rough criss-crossed edges. Type II foci were also dense, multilayered, areas of cell growth, but were stained to a purple color with Giemsa and had smoother, more defined edges compared to Type III foci. Type I foci were not scored in the assay.
# BBI, either as the free protein or in conjugated form to palmitic or oleic acid, was added to the cultures at 1.0 μg/ml for the first three weeks of the transformation assay period starting immediately after the MCA treatment. MCA-treated cells were exposed to 3-methylcholanthrene, dissolved in 25 /μl of acetone, at a concentration of 1 μg/ml for 24 hr. Acetone-treated cells were exposed to 25 μl of acetone for 24 hr only. […]
molecule,measurement,setting,value
B1,order of the transport extent (cumulative transport),"Caco-2 monolayers; Caco-2 transwells, n=3",BBIssPal(4)>BBI>BBIssPal(2)
same,transcytosis across the monolayers (G50 analysis of basal media),Caco-2 monolayers; basal media at 24 hr,neither BBI nor BBIssPal(4) was transcytosed
same,transformed foci in the dishes scored,[1],no transformed foci
same,Fraction of dishes containing transformed foci,[1]; scored at six weeks,0
same,No. of dishes with transformed foci/No. of dishes,[1]; scored at six weeks,0/20
